Values quoted from earlier work as cited in US20200069786A1, “COMPOSITION AND PROCESS FOR PREPARING VACCINE” (TREOS BIO ZRT., priority 2018, published 2020).
Like-named read-outs stand apart in the source and are kept apart here.

System: TSA
[1] = TSA expression rate in HEAD and NECK
[2] = TSA expression rate in MELANOMA
[3] = TSA expression rate in BLADDER cancer
[4] = TSA expression rate in Cervical cancer

B1: MAGE-A1l (protein, UniProt P43364 1-429, looked up)
Melanoma-associated antigen 11: METQFRRGGLGCSPASIKRKKKREDSGDFGLQVSTMFSEDDFQSTERAPYGPQLQWSQDLPRVQVFREQANLEDRSPRRTQRITGGEQVLWGPITQIFPTVRPADLTRVIMPLEQRSQHCKPEEGLQAQEEDLGLVGAQALQAEEQEAAFFSSTLNVGTLEELPAAESPSPPQSPQEESFSPTAMDAIFGSLSDEGSGSQEKEGPSTSPDLIDPESFSQDILHDKIIDLVHLLLRKYRVKGLITKAEMLGSVIKNYEDYFPEIFREASVCMQLLFGIDVKEVDPTSHSYVLVTSLNLSYDGIQCNEQSMPKSGLLIIVLGVIFMEGNCIPEEVMWEVLSIMGVYAGREHFLFGEPKRLLTQNWVQEKYLVYRQVPGTDPACYEFLWGPRAHAETSKMKVLEYIANANGRDPTSYPSLYEDALREEGEGV
Question: For B1, which “TSA Expression Rate (ER)” value (BRAIN) is on record?
Answer: 85%

B2: MAGE-A11 (protein, UniProt P43364 1-429, looked up)
Melanoma-associated antigen 11: METQFRRGGLGCSPASIKRKKKREDSGDFGLQVSTMFSEDDFQSTERAPYGPQLQWSQDLPRVQVFREQANLEDRSPRRTQRITGGEQVLWGPITQIFPTVRPADLTRVIMPLEQRSQHCKPEEGLQAQEEDLGLVGAQALQAEEQEAAFFSSTLNVGTLEELPAAESPSPPQSPQEESFSPTAMDAIFGSLSDEGSGSQEKEGPSTSPDLIDPESFSQDILHDKIIDLVHLLLRKYRVKGLITKAEMLGSVIKNYEDYFPEIFREASVCMQLLFGIDVKEVDPTSHSYVLVTSLNLSYDGIQCNEQSMPKSGLLIIVLGVIFMEGNCIPEEVMWEVLSIMGVYAGREHFLFGEPKRLLTQNWVQEKYLVYRQVPGTDPACYEFLWGPRAHAETSKMKVLEYIANANGRDPTSYPSLYEDALREEGEGV
Question: Which results are given for B2?
Answer: TSA Expression Rate (ER) (BREAST): 59%; TSA Expression Rate (ER) (HCC): 36%; Expression Rate (ER) % [1]: 37%; Expression Rate (ER) % [2]: 54%

B3: PEPP2 (protein, UniProt Q9BQY4 1-288, looked up)
Rhox homeobox family member 2: MEPPDQCSQYMTSLLSPAVDDEKELQDMNAMVLSLTEEVKEEEEDAQPEPEQGTAAGEKLKSAGAQGGEEKDGGGEEKDGGGAGVPGHLWEGDLEGTSGSDGNVEDSDQSEKEPGQQYSRPQGAVGGLEPGNAQQPNVHAFTPLQLQELERIFQREQFPSEFLRRRLARSMNVTELAVQIWFENRRAKWRRHQRALMARNMLPFMAVGQPVMVTAAEAITAPLFISGMRDDYFWDHSHSSSLCFPMPPFPPPSLPLPLMLLPPMPPAGQAEFGPFPFVIVPSFTFPNV
Question: Which “TSA Expression Rate (ER)” value (BREAST) does the source give for B3 here?
Answer: 60%

B4: GAGE-1 (protein, UniProt P0DTW1 1-117, looked up)
G antigen 1: MSWRGRSTYYWPRPRRYVQPPEMIGPMRPEQFSDEVEPATPEEGEPATQRQDPAAAQEGEDEGASAGQGPKPEADSQEQGHPQTGCECEDGPDGQEMDPPNPEEVKTPEEGEGQSQC
Question: Which results are given for B4?
Answer: TSA Expression Rate (ER) (BRAIN): 42%; Expression Rate (ER) % [1]: 39%

B5: XAGE-3 (protein, UniProt Q8WTP9 1-111, looked up)
X antigen family member 3: MIWRGRSTYRPRPRRSVPPPELIGPMLEPGDEEPQQEEPPTESRDPAPGQEREEDQGAAETQVPDLEADLQELSQSKTGGECGNGPDDQGKILPKSEQFKMPEGGDRQPQV
Question: With B5 as the molecule, how does the “TSA Expression Rate (ER)” value (BRAIN) read?
Answer: 60%

Question: What about the “Expression Rate (ER) %” value [1] of the same molecule?
Answer: 12%

Question: What about the “Expression Rate (ER) %” value [2] of the same molecule?
Answer: 0%

B6: SPAG9 (protein, UniProt O60271 1-1321, looked up)
C-Jun-amino-terminal …: MELEDGVVYQEEPGGSGAVMSERVSGLAGSIYREFERLIGRYDEEVVKELMPLVVAVLENLDSVFAQDQEHQVELELLRDDNEQLITQYEREKALRKHAEEKFIEFEDSQEQEKKDLQTRVESLESQTRQLELKAKNYADQISRLEEREAELKKEYNALHQRHTEMIHNYMEHLERTKLHQLSGSDQLESTAHSRIRKERPISLGIFPLPAGDGLLTPDAQKGGETPGSEQWKFQELSQPRSHTSLKVSNSPEPQKAVEQEDELSDVSQGGSKATTPASTANSDVATIPTDTPLKEENEGFVKVTDAPNKSEISKHIEVQVAQETRNVSTGSAENEEKSEVQAIIESTPELDMDKDLSGYKGSSTPTKGIENKAFDRNTESLFEELSSAGSGLIGDVDEGADLLGMGREVENLILENTQLLETKNALNIVKNDLIAKVDELTCEKDVLQGELEAVKQAKLKLEEKNRELEEELRKARAEAEDARQKAKDDDDSDIPTAQRKRFTRVEMARVLMERNQYKERLMELQEAVRWTEMIRASRENPAMQEKKRSSIWQFFSRLFSSSSNTTKKPEPPVNLKYNAPTSHVTPSVKKRSSTLSQLPGDKSKAFDFLSEETEASLASRREQKREQYRQVKAHVQKEDGRVQAFGWSLPQKYKQVTNGQGENKMKNLPVPVYLRPLDEKDTSMKLWCAVGVNLSGGKTRDGGSVVGASVFYKDVAGLDTEGSKQRSASQSSLDKLDQELKEQQKELKNQEELSSLVWICTSTHSATKVLIIDAVQPGNILDSFTVCNSHVLCIASVPGARETDYPAGEDLSESGQVDKASLCGSMTSNSSAETDSLLGGITVVGCSAEGVTGAATSPSTNGASPVMDKPPEMEAENSEVDENVPTAEEATEATEGNAGSAEDTVDISQTGVYTEHVFTDPLGVQIPEDLSPVYQSSNDSDAYKDQISVLPNEQDLVREEAQKMSSLLPTMWLGAQNGCLYVHSSVAQWRKCLHSIKLKDSILSIVHVKGIVLVALADGTLAIFHRGVDGQWDLSNYHLLDLGRPHHSIRCMTVVHDKVWCGYRNKIYVVQPKAMKIEKSFDAHPRKESQVRQLAWVGDGVWVSIRLDSTLRLYHAHTYQHLQDVDIEPYVSKMLGTGKLGFSFVRITALMVSCNRLWVGTGNGVIISIPLTETNKTSGVPGNRPGSVIRVYGDENSDKVTPGTFIPYCSMAHAQLCFHGHRDAVKFFVAVPGQVISPQSSSSGTDLTGDKAGPSAQEPGSQTPLKSMLVISGGEGYIDFRMGDEGGESELLGEDLPLEPSVTKAERSHLIVWQVMYGNE
Question: With B6 as the molecule, how does the “TSA Expression Rate (ER)” value (BRAIN) read?
Answer: 60%

Question: What about the “TSA Expression Rate (ER)” value (BREAST) of the same molecule?
Answer: 88%

Question: And the “TSA Expression Rate (ER)” value (HCC)?
Answer: 52%

Question: And the “TSA Expression Rate (ER)” value (LUNG)?
Answer: 56%

Question: And the “TSA Expression Rate (ER)” value (OVARIAN)?
Answer: 90%

Question: And the “TSA Expression Rate (ER)” value (THYROID)?
Answer: 78%

Question: And the “Expression Rate (ER) %” value [3]?
Answer: 81%

Question: What about the “Expression Rate (ER) %” value (TSA expression rate in CRC) of the same molecule?
Answer: 71%

Question: And the “Expression Rate (ER) %” value [4]?
Answer: 82%

Question: What about the “Expression Rate (ER) %” value (TSA expression rate in Kidney) of the same molecule?
Answer: 88%

Question: What about the “Expression Rate (ER) %” value (TSA expression rate in LEUKEMIAS) of the same molecule?
Answer: 100%

B7: PIWIL2 (protein, UniProt Q8TC59 1-973, looked up)
Piwi-like protein 2: MDPFRPSFRGQSPIHPSQCQAVRMPGCWPQASKPLDPALGRGAPAGRGHVFGKPEEPSTQRGPAQRESVGLVSMFRGLGIETVSKTPLKREMLPSGRGILGRGLSANLVRKDREELSPTFWDPKVLAAGDSKMAETSVGWSRTLGRGSSDASLLPLGRAAGGISREVDKPPCTFSTPSRGPPQLSSPPALPQSPLHSPDRPLVLTVEHKEKELIVKQGSKGTPQSLGLNLVKIQCHNEAVYQYHVTFSPNVECKSMRFGMLKDHQAVTGNVTAFDGSILYLPVKLQQVLELKSQRKTDSAEISIKIQMTKILEPCSDLCIPFYNVVFRRVMKLLDMKLVGRNFYDPTSAMVLQQHRLQIWPGYAASIRRTDGGLFLLADVSHKVIRNDCVLDVMHAIYQQNKEHFQDECTKLLVGNIVITRYNNRTYRIDDVDWNKTPKDSFTMSDGKEITFLEYYSKNYGITVKEEDQPLLIHRPSERQDNHGMLLKGEILLLPELSFMTGIPEKMKKDFRAMKDLAQQINLSPKQHHSALECLLQRIAKNEAATNELMRWGLRLQKDVHKIEGRVLPMERINLKNTSFITSQELNWVKEVTRDPSILTIPMHFWALFYPKRAMDQARELVNMLEKIAGPIGMRMSPPAWVELKDDRIETYVRTIQSTLGAEGKIQMVVCIIMGPRDDLYGAIKKLCCVQSPVPSQVVNVRTIGQPTRLRSVAQKILLQINCKLGGELWGVDIPLKQLMVIGMDVYHDPSRGMRSVVGFVASINLTLTKWYSRVVFQMPHQEIVDSLKLCLVGSLKKFYEVNHCLPEKIVVYRDGVSDGQLKTVANYEIPQLQKCFEAFENYQPKMVVFVVQKKISTNLYLAAPQNFVTPTPGTVVDHTITSCEWVDFYLLAHHVRQGCGIPTHYVCVLNTANLSPDHMQRLTFKLCHMYWNWPGTIRVPAPCKYAHKLAFLSGHILHHEPAIQLCENLFFL
Question: Which “TSA Expression Rate (ER)” value (BRAIN) does the source give for B7 here?
Answer: 64%

Question: What about the “TSA Expression Rate (ER)” value (BREAST) of the same molecule?
Answer: 94%

Question: And the “TSA Expression Rate (ER)” value (LUNG)?
Answer: 66%

Question: What about the “TSA Expression Rate (ER)” value (OVARIAN) of the same molecule?
Answer: 61%

Question: And the “TSA Expression Rate (ER)” value (THYROID)?
Answer: 88%

Question: And the “Expression Rate (ER) %” value [3]?
Answer: 82%

Question: And the “Expression Rate (ER) %” value (TSA expression rate in CRC)?
Answer: 80%

Question: And the “Expression Rate (ER) %” value [4]?
Answer: 100%

Question: What about the “Expression Rate (ER) %” value (TSA expression rate in Kidney) of the same molecule?
Answer: 49%

Question: And the “Expression Rate (ER) %” value (TSA expression rate in PROSTATE cancer)?
Answer: 100%

B8: ACTL8 (protein, UniProt Q9H568 1-366, looked up)
Actin-like protein 8: MAARTVIIDHGSGFLKAGTAGWNEPQMVFPNIVNYLPCKENPGPSYARRRVSLGIDICHPDTFSYPIERGRILNWEGVQYLWSFVLENHRREQEVPPVIITETPLREPADRKKMLEILFELLHVPSVLLADQLQMSLYASGLLTGVVVDSGYGLTRVQPFHQGRPLPASGKTLEFAGQDLSAYLLKSLFKEDCDRRCLFQLETVAVTQMNKCYVPQNLGEALDFRERQQSALDESNTYQLPDGSRVELTPMQRVAPEMFFSPQVFEQPGPSIPRAIVESVESCEISLRPLLVSHVMACGGNTLYPGFTKRLFRELMGDHVSSTKATVWEGSNRNFSVWLGASVVAHLSTYQSEWMSREEYGEHMRM
Question: Which “TSA Expression Rate (ER)” value (BRAIN) does the source give for B8 here?
Answer: 54%

B9: gp100 (protein, UniProt P40967 25-661, looked up)
Melanocyte protein PMEL: KVPRNQDWLGVSRQLRTKAWNRQLYPEWTEAQRLDCWRGGQVSLKVSNDGPTLIGANASFSIALNFPGSQKVLPDGQVIWVNNTIINGSQVWGGQPVYPQETDDACIFPDGGPCPSGSWSQKRSFVYVWKTWGQYWQVLGGPVSGLSIGTGRAMLGTHTMEVTVYHRRGSRSYVPLAHSSSAFTITDQVPFSVSVSQLRALDGGNKHFLRNQPLTFALQLHDPSGYLAEADLSYTWDFGDSSGTLISRALVVTHTYLEPGPVTAQVVLQAAIPLTSCGSSPVPGTTDGHRPTAEAPNTTAGQVPTTEVVGTTPGQAPTAEPSGTTSVQVPTTEVISTAPVQMPTAESTGMTPEKVPVSEVMGTTLAEMSTPEATGMTPAEVSIVVLSGTTAAQVTTTEWVETTARELPIPEPEGPDASSIMSTESITGSLGPLLDGTATLRLVKRQVPLDCVLYRYGSFSVTLDIVQGIESAEILQAVPSGEGDAFELTVSCQGGLPKEACMEISSPGCQPPAQRLCQPVLPSPACQLVLHQILKGGSGTYCLNVSLADTNSLAVVSTQLIMPGQEAGLGQVPLIVGILLVLMAVVLASLIYRRRLMKQDFSVPQLPHSSSHWLRLPRIFCSCPIGENSPLLSGQQV
Question: Which “TSA Expression Rate (ER)” value (BRAIN) does the source give for B9 here?
Answer: 85%

Question: What about the “Expression Rate (ER) %” value [2] of the same molecule?
Answer: 82%
